Results reported in paper PMC10311653 (ACS Central Science, 2023).
Read-outs that look alike come from different tables or passages of the source.

Columns and labels:
[1] = biological target: hIL-1βQ15Kcr (Homo sapiens, UniProt P01584, point mutant, Nε-crotonyl-L-lysine (Kcr) at 15)
[2] = biological target: T1, wildtype (WT) human interleukin-1β (Homo sapiens, UniProt P01584)
[3] = biological target: T1, wildtype (WT) human interleukin-1β; test: ELISA; phage ELISA; antigen (100 ng) coated on the plate; phages added (pfu titration) in 3% skim milk in DPBST, 2 h at 37 °C; conditions: one partner purified
[4] = biological target: T2, hIL-1βQ15G (Homo sapiens, UniProt P01584, point mutant); test: not stated; binding affinity of Q15Kcr-G8-mFc for hIL-1β, hIL-1βQ15Kcr and hIL-1βQ15G (Figure S13E); conditions: both partners purified
T2 construct: human interleukin-1β (hIL-1β); source: E. coli BL21 (DE3), purified (Ni-NTA, Superdex 75 SEC)

[5] = biological target: T3, hIL-1β V151A (Homo sapiens, UniProt P01584, point mutant); test: ELISA; antigen (100 ng) coated on the plate; scFv-mFc added in 3% skim milk in DPBST, 2 h at 37 °C; EC50; conditions: both partners purified
T3 construct: human interleukin-1β (hIL-1β); source: E. coli BL21 (DE3), purified (Ni-NTA, Superdex 75 SEC)

[6] = biological target: T1, wildtype (WT) human interleukin-1β; test: as above; conditions: both partners purified

Binder	binding result [1]	binding result [2]	binding result [3]	also measured
Q15CK-A8 (antibody, V domains shown) VH: EVKLQESGAELVKPGASVKLSCTASGFNIEDTYIHWVKQRPEQGLEWIGRIDPANGNTKYDPKFQGKATITEDTSSNTAYLQLSSLTSEDTAVYYCAIHYYGSFAYWGQGTLVTVSA VL: DIQITQSRKFMSTSVGDRVSVTCKASQNVGTNVAWYQQKPGQSPKALIYSASYRYSGVPDRFTGSGSGTDFTLTISNVQSEDLAEYFCQQYNSYPYTFGGGTKLELK	binds	binds	–	–
Q15Kcr-H2 phage (scFv, V domains shown, mouse scFv from the Q15Kcr immunization library; source: E. coli XL1-Blue with M13KO7 (ΔpIII) hyperphage, monoclonal phage, PEG 8000/NaCl precipitated) VH: EVQLQQSGAELVKPGASVKLSCTASGFNIKDTYIHWVKQRPEQGLEWIGRIDPANVNTKYDPKFQGKATITADTSSNTAYLQLSSLTSEDTAVYYCAIHYYGSFAHWGQGTLVTVSA VL: DILMTQSQKFMSTSVGDRVSVTCKASQNVGTNVAWYQQKPGQSPKALIYQASYRYSGVPDRFTGSGSGTDFTLTISNVQSEDLAEYFCQQYNSYPYTFGGGTKLELK	–	–	binds	–
Q15Kcr-G8-mFc (Fc fusion, mouse, as the scFv of m42; source: HEK 293F, transfected, purified (Protein A, Superdex 200 SEC)) VH: EVQLQQSGAELVKPGASVKLSCTASDFNIKDTYIHWVKQRPEQGLEWIGRIDPADGNTKYDPKFQGKATITADTSSNTAYLQLSSLTSEDTAVYYCAIHYYGSFPYWGQGTLVTVSA VL: DIVMTQAHKFMSTSVGDRVSITCQASQDVGTAVAWYQQKPGQSPKLLIYWASTRHTGVPDRFTGSGSGTDFTLTISNVQSEDLADYFCQQYSSYPYTFGGGTKLEIK	–	–	–	fold decrease of affinity [4]: ~10 fold
Q15Kcr-D1 phage (scFv, V domains shown, mouse scFv from the Q15Kcr immunization library; source: E. coli XL1-Blue with M13KO7 (ΔpIII) hyperphage, monoclonal phage, PEG 8000/NaCl precipitated) VH: EVQLQESGAELVKPGASVKLSCTASGFNIEDTYIHWVKQRPEQGLEWIGRIDPANDNTKYDPKFQGKATITEDTSSNTAYLQLSSLTSEDTAVYYCAIHYYGSFAYWGQGTLVTVSA VL: DILMTQSRKFMSTSVGDRVSVTCKASQNVGTNVAWYQQKPGQSPEALIYSASYRYSGVPDRFTGSGSGTDFTLTISNVQSEDLADYFCQQYNTYPYTFGGGTKLEMK	–	–	binds	–
Q15Kcr-A3 phage (scFv, V domains shown, mouse scFv from the Q15Kcr immunization library; source: E. coli XL1-Blue with M13KO7 (ΔpIII) hyperphage, monoclonal phage, PEG 8000/NaCl precipitated) VH: EVQLQQSGAELVKPGASVKLSCTASGFNIKDTYIHWVKQRPEQGLEWIGRIDPANGNTKYDPKFQGKATIRADTSSNTAYLQLSSLTSEDTAVYYCAIHYYGSFAYWGQGTLVTVSA VL: DILMTQSHKFMSTSVGDRVSITCKASQDVGTAVAWYQQKPGQSPKLLIYWASTRHTGVPDRFTGSGSGTDFTLTISNVQSEDLADYFCQQYSSYPYTFGGGTKLEIK	–	–	binds	–
Q15Kcr-C7 phage (scFv, V domains shown, mouse scFv from the Q15Kcr immunization library; source: E. coli XL1-Blue with M13KO7 (ΔpIII) hyperphage, monoclonal phage, PEG 8000/NaCl precipitated) VH: EVQQQQSGTELMKPGASVKISCKATGYTFSSYWIEWVKQRPGHGLEWIGEILPGSGSTNYNEKFKGKATFTADTTSNTAYMQLSSLTSEDSAVYYCASGGYRPSMDYWGQGISVTVSS VL: GIELTQSQKFTSTSVGDRVSVTCKASQNVGTNVAWYQQKPGQSPKALIYQASYRYSGVPDRFTGSGSGTDFTLTISNVQSEDLAEYFCQQYNSYPLTFGAGTKLELK	–	–	binds	–
Q15Kcr-C1 phage (scFv, V domains shown, mouse scFv from the Q15Kcr immunization library; source: E. coli XL1-Blue with M13KO7 (ΔpIII) hyperphage, monoclonal phage, PEG 8000/NaCl precipitated) VH: EVQLQQSGAELVKPGASVKLSCTASGFNIKDTYIHWVKQRPEQGLEWIGRIDPADGNTKYDPKFQGKATITADTSSNTAYLQLSSLTSEDTAVYYCAIHYYGSFPYWGQGTLVTVSA VL: DIQMTQTTSSLSASLGDRVSISCRTSQDISNYLNWYQQKPDGTLKLLIYFTSRLHSGVPSRFSGSGSGTDYSLTISNLEQEDIATYFCQQGKTLPYTFGGGTKLELK	–	–	binds	–
Q15CK-H5 (antibody, V domains shown) VH: EVQLQQSGAELVKPGASVRLSCTASGFNIKDTYMHWVRQRPEQGLEWIGRIDPANGNTKYDPKSQGKATLTADTSSNTAYLHLSSLTSEDTAVYYCAIHYYGSFAYWGQGTLVTVSA VL: DIVMTQSQKFMSTSVGDRVSVTCKASQNVGTNVAWYQQKPGQSPKALIYSASYRYSGVPDRFTGSGSGTDFTLTISNVQSEDLAEYFCQQYNSYPLTFGAGTKLELK	binds	binds	–	–
Q15CK-B10 (antibody, V domains shown) VH: EVQLQQSGTELVKPGASVKLSCTASGFNIKDTYMHWVKQRPEQGLEWIGRIDPANDNTKYDPKFQGKATITTDTSSNTAYLQLSSLTSEDTAVYYCAIHYYGSFPYWGQGTLVTVSA VL: DIVMTQSQKFMSTSVGDRVSITCKASQNVGTAVAWYQQKPGQSPKLLIYSASNRYTGVPDRFTGSGSGTDFTLTISNMQSEDLADYFCQQYSSYPYTFGGGTKLELK	binds	binds	–	–
Q15Kcr-B6 phage (scFv, V domains shown, mouse scFv from the Q15Kcr immunization library; source: E. coli XL1-Blue with M13KO7 (ΔpIII) hyperphage, monoclonal phage, PEG 8000/NaCl precipitated) VH: EVQLQESGAELVKPGASVKLSCTASGFNIKDTYIHWVKQRPEQGLEWIGRIDPANVNTKYDPKFQGKATITADTSSNTAYLQLSSLTSEDTAVYYCAIHYYGSFAHWGQGTLVTVPA VL: DIVMTQSHKFMSTSVGDRVSITCKASQDVGTAVAWYQQKPGQSPKLLIYWASTRHTGVPDRFTGSGSGTDFTLTISNVQSEDLADYFCQQYSSYPLTFGSGTKLEIK	–	–	binds	–
E64Kcr-B9-mFc (Fc fusion, mouse, as the scFv of m30; source: HEK 293F, transfected, purified (Protein A, Superdex 200 SEC)) VH: EVQLQQSGAELVKPGASVKLSCTASGFNIKDTYMHWVKQRPEQGLEWIGRIDPANGNTKYDPKFQGKATITADTSSNTAYLQLSSLTSEDTAVYYCAIHYYGSLPVWGAGTTVTVSS VL: GIVMTQSHKFMSTSVGDRVSITCKASQDVGTAVAWYQQKPGQSPKLLIYWASTRHTGVPDRFTGSGSGTDFTLTISNVQSEDLADYFCQQYSSYPLTFGAGTMLELK	–	–	–	binding result [5]: binds; EC50 [6]: 0.04 nM
CL-E2 phage (scFv, V domains shown, mouse scFv from the E64AcrK immunization library; also called phage CL-E2; source: E. coli XL1-Blue with M13KO7 (ΔpIII) hyperphage, monoclonal phage, PEG 8000/NaCl precipitated) VH: EVQLKESGAELMKPGASVKISCKATGYTFSSYWIEWVKQRPGHGLEWIGEILPGSGSTNYNEKFKGKATFTADISSNTAYMQLSSLTSEDSAVYYCASGGYRPSMDFWGQGTSVTVSS VL: DIVMTQSQKFMSTSVGDRVSITCKASQNVRTAVAWYQQKPGQSPKALIYLASNRHTGVPDRFTGSGSGTDFTLTITNVQSEDLADYFCLQHWNYPLTFGAGTKLELK	–	–	binds	–
Q15CK-B1 (antibody, V domains shown) VH: EVQLQQSGPQLVRPGASVKISCKASGYSFTSYWMHWVKQRPGQGLEWIGMIDPSDSETRLNQKFKDKATLTVDKSSSTAYMQLSSPTSEDSAVYYCARWDSWGQGTLVTVSA VL: DIVMTQSPSSLTVTAGEKVTMSCKSSQSLSKSGNQKNYLTWYQQKPGQPPKLLIYWASTRESGVPDRFTGSGSGTDFTLTISSVQAEDLAVYYCQNDYSYPFTFGSGTKLEIK	binds	binds	–	–
Q15CK-D6 (antibody, V domains shown) VH: EVQLQQSGPQLVRPGASVKISCKASGYSFTNYWMHWVKQRPGQGLEWIGMIDPSDSETRLDQKFKDKATLTVDKSSSTAYMQLSSPTSEDSAVYYCARWDSWGQGTLVTVSA VL: DILLTQSPSSLTVTAGEKVTMSCKSSQSLLNSGNQKNYLTWYQQKPGQPPKLLIYWASTRESGVPDRFTGSGSGTDFTLTISSVQAEDLAVYYCQNDYSYPFTFGSGTKLEIK	binds	binds	–	–
Q15Kcr-H11 phage (scFv, V domains shown, mouse scFv from the Q15Kcr immunization library; source: E. coli XL1-Blue with M13KO7 (ΔpIII) hyperphage, monoclonal phage, PEG 8000/NaCl precipitated) VH: EVQLQQSGAELVKTGASVKLSCTASGFSIKDTYIHWVKQRPEQGLEWIGRIDPDPATINTKYDPHFQDKATITADTSSNTTYLQLSSLTSEDTAVYYCAIHYYGSFPYWGQGTLVTVSA VL: DIQMTQTTSSLSASLGDRVTISCRASQDISNYLNWYQQKPDGTVKLLIYFTSRLHSGVPSRFSGSGSGTDYSLTISNLEQEDIATYFCQQGNTLPYTFGGGTKLELK	–	–	binds	–
E64Kcr-A4-mFc (Fc fusion, mouse, as the scFv of m29; source: HEK 293F, transfected, purified (Protein A, Superdex 200 SEC)) VH: EVKLEESGGGLVQPGGSMKLSCVASGFTFSNYWMNWVRQSPEKGLEWVAEIRLKSNNYATPYAESVKGRFTISRDDSKSSVYLQMNNLRAEDTGIYYCTRGGIFLAYWGQGTLVTVSA VL: DIQLTQPTSSLSASLGDRVTISCRASQDISNYLNWYQQKPDGTVKLLIYYTSRLHSGVPSRFSGSGSGTDYSLTISNLEQEDIATYFCQQGNTLPYTFGGGTKLELK	–	–	–	binding result [5]: binds; EC50 [6]: 0.121 nM
Q15CK-D4 (antibody, V domains shown) VH: EVQLVESGGGLVQPGGSRKLSCAASGFTFSTFGMHWVRQAPEKGLEWVAYISSGSYTIYYADTVKGRFTISRDNPKNTLFLQMTSLRSEDTAMYYCARDDYDVNYYAMDYWGQGTSVTVSS VL: DIVLSQSPAIMSASPGEKVTMTCSASSSVSYMHWYQQKSSTSPKLWIYDTSKLASGVPGRFSGSGSGNSYSLTISSMEAEDVATYYCFQGSGYPYTFGGGTKLEIK	binds	binds	–	–
E64Kcr-G9-mFc (Fc fusion, mouse, as the scFv of m27; source: HEK 293F, transfected, purified (Protein A, Superdex 200 SEC)) VH: EVQLVESGGGLVQPGGSRKLSCAASGFTFSSFGMHWVRQAPEKGLEWVAYISSGSSTIYYADTVKGRFTISRDNPKNTLFLQMTSLRSEDTAMYYCARDDYDVRAYAMDYWGQGTSVTVSS VL: DIQMIQSPASLSASVGETVTITCRASQNIYSYLAWYQQKQGKSPQLLVYNAKTLAEGVPSRFSGSGSGTQFSLKINSLQPEDFGSYYCQHHYGTPLTFGAGTKLELK	–	–	–	binding result [5]: binds; EC50 [6]: 0.197 nM
E64Kcr-A5-mFc (Fc fusion, mouse, as the scFv of m25; source: HEK 293F, transfected, purified (Protein A, Superdex 200 SEC)) VH: EVQLVESGGGLVQPGGSRKLSCAASGFTFSSFGMHWVRQAPEKGLEWVAYISSGSYTIYYADTVKGRFTISRDNPKNTLFLQMTSLRSEDTAMYYCTRDDYDVRAYAMDYWGQGTSVTVSS VL: DIVMTQPSSSFSVSLGDRVTITCKASEDIYNRLAWYQQKPGNAPRLLISGATTLETGVPSRFSGSGSGKDYTLTITSLQTEDVATYYCQQYWSTPLTFGAGTKLELK	–	–	–	binding result [5]: binds; EC50 [6]: 0.034 nM
